Results on one substance are retold here after US20240294650A1.

The target of assay [1] is endogenous murine MerTK on bone marrow-derived macrophages (mouse) (UniProt Q60805). Description: FACS, mouse BMDM, WT minus MerTK KO.
In assay [2] the target is mouse MerTK overexpressed on CHO cells (mouse) (UniProt Q60805). Description: FACS, CHO-muMerTK OE cells, PE-conjugated control.
Sequence of mouse MerTK overexpressed on CHO cells (mouse) (Q60805 19-994): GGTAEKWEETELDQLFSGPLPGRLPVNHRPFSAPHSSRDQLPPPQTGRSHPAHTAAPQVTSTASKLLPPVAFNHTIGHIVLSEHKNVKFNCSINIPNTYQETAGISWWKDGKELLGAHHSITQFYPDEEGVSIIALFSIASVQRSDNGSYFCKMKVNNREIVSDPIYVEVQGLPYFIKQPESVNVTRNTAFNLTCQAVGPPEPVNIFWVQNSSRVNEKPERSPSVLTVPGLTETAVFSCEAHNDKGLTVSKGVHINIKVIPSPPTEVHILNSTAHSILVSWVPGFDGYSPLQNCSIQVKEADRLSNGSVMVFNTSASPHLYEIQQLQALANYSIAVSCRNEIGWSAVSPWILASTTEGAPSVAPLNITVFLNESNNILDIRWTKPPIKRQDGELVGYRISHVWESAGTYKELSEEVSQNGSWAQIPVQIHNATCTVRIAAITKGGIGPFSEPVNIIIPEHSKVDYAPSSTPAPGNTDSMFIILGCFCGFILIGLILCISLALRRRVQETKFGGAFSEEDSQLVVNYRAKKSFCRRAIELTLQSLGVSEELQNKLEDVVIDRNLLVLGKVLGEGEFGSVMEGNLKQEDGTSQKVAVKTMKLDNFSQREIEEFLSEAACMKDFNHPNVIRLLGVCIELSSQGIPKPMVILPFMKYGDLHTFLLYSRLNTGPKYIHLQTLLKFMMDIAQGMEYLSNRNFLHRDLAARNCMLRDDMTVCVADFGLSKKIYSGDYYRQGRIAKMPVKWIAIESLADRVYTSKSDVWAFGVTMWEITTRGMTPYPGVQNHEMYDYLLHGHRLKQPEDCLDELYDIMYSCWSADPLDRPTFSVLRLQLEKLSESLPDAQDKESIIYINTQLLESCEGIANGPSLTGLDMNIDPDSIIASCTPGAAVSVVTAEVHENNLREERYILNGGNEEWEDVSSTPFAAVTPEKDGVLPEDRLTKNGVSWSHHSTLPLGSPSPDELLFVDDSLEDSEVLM

Sequence of endogenous murine MerTK on bone marrow-derived macrophages (mouse) (Q60805 19-994): as above

“rat anti-mouse MerTK monoclonal antibody DS5MMER”: the MFI in assay [1] stood at 2800 MFI; in assay [2], 3500 MFI.
